Laboratory results taken from US20160200782A1 (MOERAE MATRIX, published 2016).

Assays:
Test in all cases: cell-based or functional assay
[1] = biological target: Ab1(M351T)(h) (human, UniProt P00519 27-1130, limits assumed)
[2] = biological target: Lck(h) (human, UniProt P06239 1-509, limits assumed)
[3] = biological target: PAK5(h) (human, UniProt Q9P286 1-719, limits assumed)
Further: test concentration or dose not given here.

Sequence of PAK5(h) (Q9P286 whole entry): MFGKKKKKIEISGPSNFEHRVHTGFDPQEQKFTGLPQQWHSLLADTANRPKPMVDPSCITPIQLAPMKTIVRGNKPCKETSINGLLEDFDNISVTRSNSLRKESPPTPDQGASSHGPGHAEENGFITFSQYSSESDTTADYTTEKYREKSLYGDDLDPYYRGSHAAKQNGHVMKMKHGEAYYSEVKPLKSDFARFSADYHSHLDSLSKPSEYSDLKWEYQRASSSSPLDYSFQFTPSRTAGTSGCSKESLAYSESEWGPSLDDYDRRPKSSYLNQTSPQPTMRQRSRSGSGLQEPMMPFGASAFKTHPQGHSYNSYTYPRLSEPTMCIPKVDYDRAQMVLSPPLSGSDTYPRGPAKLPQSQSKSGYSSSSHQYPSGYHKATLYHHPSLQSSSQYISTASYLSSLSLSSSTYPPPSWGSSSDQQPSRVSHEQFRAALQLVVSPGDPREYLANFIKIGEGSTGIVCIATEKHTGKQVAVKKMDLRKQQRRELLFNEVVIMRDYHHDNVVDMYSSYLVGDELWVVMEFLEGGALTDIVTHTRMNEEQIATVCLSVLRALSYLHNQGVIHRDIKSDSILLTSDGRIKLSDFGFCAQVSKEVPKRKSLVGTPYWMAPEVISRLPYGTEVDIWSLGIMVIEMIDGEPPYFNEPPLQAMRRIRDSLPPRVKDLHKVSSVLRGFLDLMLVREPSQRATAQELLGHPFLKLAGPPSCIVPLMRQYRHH
Sequence of Lck(h) (P06239 whole entry): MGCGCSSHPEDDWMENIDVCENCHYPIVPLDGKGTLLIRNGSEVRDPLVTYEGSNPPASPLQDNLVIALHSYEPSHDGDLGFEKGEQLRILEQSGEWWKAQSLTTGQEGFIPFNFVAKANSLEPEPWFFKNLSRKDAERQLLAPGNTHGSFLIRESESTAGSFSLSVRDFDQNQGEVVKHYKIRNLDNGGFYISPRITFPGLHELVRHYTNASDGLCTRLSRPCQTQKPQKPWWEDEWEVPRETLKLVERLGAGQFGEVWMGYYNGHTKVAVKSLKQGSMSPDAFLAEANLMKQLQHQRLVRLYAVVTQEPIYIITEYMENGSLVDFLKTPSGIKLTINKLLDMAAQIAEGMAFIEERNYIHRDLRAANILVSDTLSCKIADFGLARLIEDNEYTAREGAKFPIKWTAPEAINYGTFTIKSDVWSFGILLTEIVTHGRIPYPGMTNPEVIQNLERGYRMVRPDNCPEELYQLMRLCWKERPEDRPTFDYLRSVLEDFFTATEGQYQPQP
Sequence of Ab1(M351T)(h) (P00519 27-1130 M351T limits assumed): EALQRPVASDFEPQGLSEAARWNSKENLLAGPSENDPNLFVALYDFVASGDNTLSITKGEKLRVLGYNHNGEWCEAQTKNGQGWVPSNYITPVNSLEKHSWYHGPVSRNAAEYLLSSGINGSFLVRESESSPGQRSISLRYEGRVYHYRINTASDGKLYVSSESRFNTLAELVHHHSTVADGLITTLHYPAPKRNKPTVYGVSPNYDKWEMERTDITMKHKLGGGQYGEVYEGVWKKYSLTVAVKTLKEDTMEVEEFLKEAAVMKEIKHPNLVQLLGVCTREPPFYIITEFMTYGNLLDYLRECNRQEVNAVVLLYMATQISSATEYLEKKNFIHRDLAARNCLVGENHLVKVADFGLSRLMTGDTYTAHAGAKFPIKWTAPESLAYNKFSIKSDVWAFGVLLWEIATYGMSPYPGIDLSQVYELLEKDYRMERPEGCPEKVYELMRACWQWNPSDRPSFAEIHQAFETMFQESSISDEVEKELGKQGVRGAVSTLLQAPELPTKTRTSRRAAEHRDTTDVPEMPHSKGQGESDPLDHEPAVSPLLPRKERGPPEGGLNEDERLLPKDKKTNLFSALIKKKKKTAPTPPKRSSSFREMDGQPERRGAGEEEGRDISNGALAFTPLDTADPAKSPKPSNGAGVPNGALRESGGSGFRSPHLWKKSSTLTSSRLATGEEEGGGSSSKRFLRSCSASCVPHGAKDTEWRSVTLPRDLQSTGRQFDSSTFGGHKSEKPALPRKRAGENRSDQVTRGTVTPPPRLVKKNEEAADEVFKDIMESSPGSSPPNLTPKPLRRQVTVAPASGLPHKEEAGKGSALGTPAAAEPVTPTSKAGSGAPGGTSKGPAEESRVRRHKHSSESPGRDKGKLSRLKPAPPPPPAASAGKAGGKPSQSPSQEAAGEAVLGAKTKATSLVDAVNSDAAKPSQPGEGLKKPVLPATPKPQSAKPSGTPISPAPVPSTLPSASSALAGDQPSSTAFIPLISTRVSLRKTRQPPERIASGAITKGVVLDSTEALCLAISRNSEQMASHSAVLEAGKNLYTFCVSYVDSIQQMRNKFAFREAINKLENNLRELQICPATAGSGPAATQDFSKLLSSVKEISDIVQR

In the case of FAKLAARLYRKALARQLGVAA [MMI-0300], the “% activity” value [1] is reported as 90%, the “% activity” value [2] is reported as -2% and the “% activity” value [3] is reported as 110%.
